Columns and labels:
Conditions in all cases: both partners purified
[1] = molecular target: T1, H-Ras (recombinant, guanine nucleotide-loaded) (UniProt P01112 1-189); experiment: ITC; 300 µM RGS14(RBD1.RBD2) titrated into 20 µM H-Ras loaded with GDP; 20°C; 20 mM HEPES pH 7.5, 150 mM NaCl, 1 mM MgCl2, 0.5 mM TCEP; single binding site model
T1 construct: H-Ras expressed from pPROEXHTb(H-Ras); Treated with calf intestinal phosphatase, EDTA, TEV protease and GPPNHP before gel filtration; used loaded with GPPNHP or with GDP (two assays); also called H-Ras(GPPNHP); H-Ras(GDP); source: E. coli BL21(DE3), purified (Ni-NTA, gel filtration)
T1 sequence (P01112 whole entry): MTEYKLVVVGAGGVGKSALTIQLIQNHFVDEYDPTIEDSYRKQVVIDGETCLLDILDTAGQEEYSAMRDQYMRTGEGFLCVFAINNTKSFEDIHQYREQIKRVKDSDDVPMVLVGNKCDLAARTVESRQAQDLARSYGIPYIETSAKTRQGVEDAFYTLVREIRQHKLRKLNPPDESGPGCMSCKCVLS

[2] = molecular target: T1, H-Ras (recombinant, guanine …); experiment: ITC; 300 µM RGS14(RBD1.RBD2) titrated into 20 µM H-Ras loaded with GPPNHP; 20°C; 20 mM HEPES pH 7.5, 150 mM NaCl, 1 mM MgCl2, 0.5 mM TCEP; single binding site model
[3] = molecular target: T1, H-Ras (recombinant, guanine …); experiment: ITC; 300 µM RGS14(RBD1.RBD2) titrated into 20 µM H-Ras loaded with GDP; 20°C; 20 mM HEPES pH 7.5, 150 mM NaCl, 1 mM MgCl2, 0.5 mM TCEP; single binding site model; remark: listed apart in the source
[4] = molecular target: T1, H-Ras (recombinant, guanine …); experiment: ITC; 300 µM RGS14(RBD1.RBD2) titrated into 20 µM H-Ras loaded with GPPNHP; 20°C; 20 mM HEPES pH 7.5, 150 mM NaCl, 1 mM MgCl2, 0.5 mM TCEP; single binding site model; remark: listed apart in the source

B1: RGS14(RBD1.RBD2) (domain or fragment)
chain: PGKYCCVYLPDGTASLALARPGLTIRDMLAGICEKRGLSLPDIKVYLVGNEQALVLDQDCTVLADQEVRLENRITFELELTALERVVRISAKPTKRLQEALQPILEKHGLSPLEVVLHRPGEKQPLDLGKLVSSVAAQRLVLDTLPG
What does the source list for B1?
Ka [1]: 23500 M⁻¹; dH [1]: -7.1 ± 0.5 kcal/M; stoichiometry N [1]: 1.05 ± 0.06; Ka [2]: 101000 M⁻¹; dH [2]: -1.81 ± 0.04 kcal/M; stoichiometry N [2]: 1.03 ± 0.02; Kd [3]: > 200 µM; Kd [4]: ~10 µM

From publication PMC2655719 (PLoS ONE, 2009)
